Laboratory results from US20120177639A1.

Legend:
[1] = target: protofibrils prepared from the synthetic peptide Aβ (1-42) (UniProt P05067); assay: ELISA; ratio of the EC50 on low-molecular-weight oligomers to the EC50 on protofibrils
[2] = target: protofibrils prepared from the synthetic peptide Aβ (1-42) (UniProt P05067); assay: ELISA, antigen coated at 1 µg/ml, anti-human Fc peroxidase detection
[3] = target: low-molecular-weight oligomers of Aβ (1-42) (UniProt P05067); assay: as above

| Binder | LMW/PF [1] | EC50 [2] [µg/mL] | EC50 [3] [µg/mL] |
| --- | --- | --- | --- |
| humanized antibody LP09026 (antibody, human IgG4 S228P, kappa, V domains shown) VH: EVQLQQSGPEVVKPGVSVKISCKGSGYTFTDYAMHWVKQSPGKSLEWIGVISTKYGKTNYNPSFQGQATMTVDKSSSTAYMELASLKASDSAIYYCARGDEGYSWGQGTSVTVSS VL: EIVMTQTPLSLPVSLGDRASISCRSGQSLVHSNTNTYLHWYLQKPGQSPKLLIYTVSNRFSGVPDRFSGSGSGSDFTLTISRVEAEDLGVYFCSQNTFVPWTFGGGTKLEIKR | 705 | 0.0587 | 41.4 |
| humanized anti-peptide Aβ antibody VH1VL1 (LP09027) (antibody, human IgG4 S228P, kappa, V domains shown) VH: EVQLQQSGPEVVKPGVSVKISCKGSGYTFTDYAMHWVKQSPGKSLEWIGVISTKYGKTNYNPSFQGQATMTVDKSSSTAYMELASLKASDSAIYYCARGDDGYSWGQGTSVTVSS VL: EIVMTQTPLSLPVSLGDRASISCRSGQSLVHSNGNTYLHWYLQKPGQSPKLLIYTVSNRFSGVPDRFSGSGSGSDFTLTISRVEAEDLGVYFCSQNTFVPWTFGGGTKLEIKR | 184 | 0.0798 | 14.7 |
| humanized antibody LP09028 (antibody, human IgG4 S228P, kappa, V domains shown) VH: EVQLQQSGPEVVKPGVSVKISCKGSGYTFTDYAMHWVKQSPGKSLEWIGVISTKYGKTNYNPSFQGQATMTVDKSSSTAYMELASLKASDSAIYYCARGDDGYSWGQGTSVTVSS VL: EIVMTQTPLSLPVSLGDRASISCRSGQSLVHSNTNTYLHWYLQKPGQSPKLLIYTVSNRFSGVPDRFSGSGSGSDFTLTISRVEAEDLGVYFCSQNTFVPWTFGGGTKLEIKR | 244 | 0.0892 | 21.8 |
